# From patent publication US20140178854A1
# Tests used:
# [1] = molecular target: gp70 env protein of amphotropic MLV (4070A envelope), on purified viral particles (amphotropic murine leukemia virus (4070A envelope)); test: ELISA on plate-bound MLV, dilution factor 6250, Exp072-DTV Plate 2
# [2] = molecular target: gp70 env protein of amphotropic MLV (4070A envelope), on purified viral particles (amphotropic murine leukemia virus (4070A envelope)); test: ELISA on plate-bound MLV, dilution factor 1250, Exp074-DTV Plate 1
# [3] = molecular target: gp70 env protein of amphotropic MLV (4070A envelope), on purified viral particles (amphotropic murine leukemia virus (4070A envelope)); test: ELISA on plate-bound MLV, dilution factor 156250, Exp074-DTV Plate 2
# [4] = molecular target: gp70 env protein of amphotropic MLV (4070A envelope), on purified viral particles (amphotropic murine leukemia virus (4070A envelope)); test: ELISA on plate-bound MLV, dilution factor 1250, Exp073-DTV Plate 1
# [5] = molecular target: gp70 env protein of amphotropic MLV (4070A envelope), on purified viral particles (amphotropic murine leukemia virus (4070A envelope)); test: ELISA on plate-bound MLV, dilution factor 250, Exp073-DTV Plate 1
# [6] = molecular target: gp70 env protein of amphotropic MLV (4070A envelope), on purified viral particles (amphotropic murine leukemia virus (4070A envelope)); test: ELISA on plate-bound MLV, dilution factor 250, Exp073-DTV Plate 2
# [7] = molecular target: gp70 env protein of amphotropic MLV (4070A envelope), on purified viral particles (amphotropic murine leukemia virus (4070A envelope)); test: ELISA on plate-bound MLV, dilution factor 6250, Exp121-Ana Plate 2
# [8] = molecular target: gp70 env protein of amphotropic MLV (4070A envelope), on purified viral particles (amphotropic murine leukemia virus (4070A envelope)); test: ELISA on plate-bound MLV, dilution factor 10, Exp072-DTV Plate 1
# [9] = molecular target: gp70 env protein of amphotropic MLV (4070A envelope), on purified viral particles (amphotropic murine leukemia virus (4070A envelope)); test: ELISA on plate-bound MLV, dilution factor 10, Exp121-Ana Plate 2
# [10] = molecular target: gp70 env protein of amphotropic MLV (4070A envelope), on purified viral particles (amphotropic murine leukemia virus (4070A envelope)); test: ELISA on plate-bound MLV, dilution factor 31250, Exp121-Ana Plate 1
# [11] = molecular target: gp70 env protein of amphotropic MLV (4070A envelope), on purified viral particles (amphotropic murine leukemia virus (4070A envelope)); test: ELISA on plate-bound MLV, dilution factor 250, Exp121-Ana Plate 1
# [12] = molecular target: gp70 env protein of amphotropic MLV (4070A envelope), on purified viral particles (amphotropic murine leukemia virus (4070A envelope)); test: ELISA on plate-bound MLV, dilution factor 31250, Exp122-Ana Plate 1
# [13] = molecular target: gp70 env protein of amphotropic MLV (4070A envelope), on purified viral particles (amphotropic murine leukemia virus (4070A envelope)); test: ELISA on plate-bound MLV, dilution factor 6250, Exp074-DTV Plate 1
# [14] = molecular target: gp70 env protein of amphotropic MLV (4070A envelope), on purified viral particles (amphotropic murine leukemia virus (4070A envelope)); test: ELISA on plate-bound MLV, dilution factor 50, Exp072-DTV Plate 2
# [15] = molecular target: gp70 env protein of amphotropic MLV (4070A envelope), on purified viral particles (amphotropic murine leukemia virus (4070A envelope)); test: ELISA on plate-bound MLV, dilution factor 50, Exp121-Ana Plate 2
# [16] = molecular target: gp70 env protein of amphotropic MLV (4070A envelope), on purified viral particles (amphotropic murine leukemia virus (4070A envelope)); test: ELISA on plate-bound MLV, dilution factor 31250, Exp125-Ana Plate 2
# [17] = molecular target: gp70 env protein of amphotropic MLV (4070A envelope), on purified viral particles (amphotropic murine leukemia virus (4070A envelope)); test: ELISA on plate-bound MLV, dilution factor 10, Exp074-DTV Plate 1
# [18] = molecular target: gp70 env protein of amphotropic MLV (4070A envelope), on purified viral particles (amphotropic murine leukemia virus (4070A envelope)); test: ELISA on plate-bound MLV, dilution factor 31250, Exp073-DTV Plate 2
# [19] = molecular target: gp70 env protein of amphotropic MLV (4070A envelope), on purified viral particles (amphotropic murine leukemia virus (4070A envelope)); test: ELISA on plate-bound MLV, dilution factor 1250, Exp125-Ana Plate 1
# [20] = molecular target: gp70 env protein of amphotropic MLV (4070A envelope), on purified viral particles (amphotropic murine leukemia virus (4070A envelope)); test: ELISA on plate-bound MLV, dilution factor 10, Exp072-DTV Plate 2
# [21] = molecular target: gp70 env protein of amphotropic MLV (4070A envelope), on purified viral particles (amphotropic murine leukemia virus (4070A envelope)); test: ELISA on plate-bound MLV, dilution factor 6250, Exp072-DTV Plate 1
# [22] = molecular target: gp70 env protein of amphotropic MLV (4070A envelope), on purified viral particles (amphotropic murine leukemia virus (4070A envelope)); test: ELISA on plate-bound MLV, dilution factor 156250, Exp073-DTV Plate 1
# [23] = molecular target: gp70 env protein of amphotropic MLV (4070A envelope), on purified viral particles (amphotropic murine leukemia virus (4070A envelope)); test: ELISA on plate-bound MLV, dilution factor 781250, Exp073-DTV Plate 1
# [24] = molecular target: gp70 env protein of amphotropic MLV (4070A envelope), on purified viral particles (amphotropic murine leukemia virus (4070A envelope)); test: ELISA on plate-bound MLV, dilution factor 250, Exp125-Ana Plate 1
# [25] = molecular target: gp70 env protein of amphotropic MLV (4070A envelope), on purified viral particles (amphotropic murine leukemia virus (4070A envelope)); test: ELISA on plate-bound MLV, dilution factor 781250, inter-assay mean of six experiments
# [26] = molecular target: gp70 env protein of amphotropic MLV (4070A envelope), on purified viral particles (amphotropic murine leukemia virus (4070A envelope)); test: ELISA on plate-bound MLV, dilution factor 6250, Exp125-Ana Plate 2
# gp70 env protein of amphotropic MLV (4070A envelope), on purified viral particles (amphotropic murine leukemia virus (4070A envelope)), sequence (P21995 whole entry): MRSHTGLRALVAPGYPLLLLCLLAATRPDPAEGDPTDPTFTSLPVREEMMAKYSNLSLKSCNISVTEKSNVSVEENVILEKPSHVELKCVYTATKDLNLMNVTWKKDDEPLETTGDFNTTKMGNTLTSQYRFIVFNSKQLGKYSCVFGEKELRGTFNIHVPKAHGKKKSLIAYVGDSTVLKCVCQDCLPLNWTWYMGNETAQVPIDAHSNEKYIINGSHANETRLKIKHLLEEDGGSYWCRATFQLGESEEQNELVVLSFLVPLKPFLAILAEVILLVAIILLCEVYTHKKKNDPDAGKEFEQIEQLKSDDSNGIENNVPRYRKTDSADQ
substance,measurement,setting,value
"83A25 monoclonal antibody (rat IgG2a, anti-gp70)",Mean OD,[1],0.612 OD
same,Mean OD,[2],1.45 OD
same,Mean OD,[3],0.131 OD
same,Mean OD,[4],1.78 OD
same,Mean OD,[5],2.05 OD
same,Mean OD,[6],2.12 OD
same,Mean OD,[7],0.758 OD
same,Mean OD,[8],1.98 OD
same,Mean OD,[9],2.65 OD
same,Mean OD,[10],0.322 OD
same,Mean OD,[11],2.37 OD
same,Mean OD,[12],0.289 OD
same,Mean OD,[13],0.636 OD
same,Mean OD,[14],1.86 OD
same,Mean OD,[15],2.46 OD
same,Mean OD,[16],0.239 OD
same,Mean OD,[17],2.25 OD
same,Mean OD,[18],0.276 OD
same,Mean OD,[19],1.44 OD
same,Mean OD,[20],2.04 OD
same,Mean OD,[21],0.558 OD
same,Mean OD,[22],0.14 OD
same,Mean OD,[23],0.107 OD
same,Mean OD,[24],1.85 OD
same,Mean OD (inter-assay mean),[25],0.118 OD
same,Mean OD,[26],0.635 OD
